Assay results: patent US20180009871A1 (INTARCIA THERAPEUTICS, published 2018)
Where no end group is shown, it is not given here. [ ]: non-standard residue; d: D form. Aib = CC(C)(N)C(=O)O

B1: Compound A4 (peptide)
peptide: YSHGTFTSDYSKYLD[Aib]KRAQEFVIWLEDEPSSGAPPPS-OH
modifications: N-terminus assumed
SMILES: CC[C@H](C)[C@H](NC(=O)[C@@H](NC(=O)[C@H](Cc1ccccc1)NC(=O)[C@H](CCC(=O)O)NC(=O)[C@H](CCC(N)=O)NC(=O)[C@H](C)NC(=O)[C@H](CCCNC(=N)N)NC(=O)[C@H](CCCCN)NC(=O)C(C)(C)NC(=O)[C@H](CC(=O)O)NC(=O)[C@H](CC(C)C)NC(=O)[C@H](Cc1ccc(O)cc1)NC(=O)[C@H](CCCCN)NC(=O)[C@H](CO)NC(=O)[C@H](Cc1ccc(O)cc1)NC(=O)[C@H](CC(=O)O)NC(=O)[C@H](CO)NC(=O)[C@@H](NC(=O)[C@H](Cc1ccccc1)NC(=O)[C@@H](NC(=O)CNC(=O)[C@H](Cc1c[nH]cn1)NC(=O)[C@H](CO)NC(=O)[C@@H](N)Cc1ccc(O)cc1)[C@@H](C)O)[C@@H](C)O)C(C)C)C(=O)N[C@@H](Cc1c[nH]c2ccccc12)C(=O)N[C@@H](CC(C)C)C(=O)N[C@@H](CCC(=O)O)C(=O)N[C@@H](CC(=O)O)C(=O)N[C@@H](CCC(=O)O)C(=O)N1CCC[C@H]1C(=O)N[C@@H](CO)C(=O)N[C@@H](CO)C(=O)NCC(=O)N[C@@H](C)C(=O)N1CCC[C@H]1C(=O)N1CCC[C@H]1C(=O)N1CCC[C@H]1C(=O)N[C@@H](CO)C(=O)O
B2: Compound A2 (peptide)
peptide: YSHGTFTSDYSKYLD[Aib]KSAQEFV[Aib]WLEDEPSSGAPPPS-OH
modifications: N-terminus assumed
SMILES: CC(C)C[C@H](NC(=O)[C@H](Cc1ccc(O)cc1)NC(=O)[C@H](CCCCN)NC(=O)[C@H](CO)NC(=O)[C@H](Cc1ccc(O)cc1)NC(=O)[C@H](CC(=O)O)NC(=O)[C@H](CO)NC(=O)[C@@H](NC(=O)[C@H](Cc1ccccc1)NC(=O)[C@@H](NC(=O)CNC(=O)[C@H](Cc1c[nH]cn1)NC(=O)[C@H](CO)NC(=O)[C@@H](N)Cc1ccc(O)cc1)[C@@H](C)O)[C@@H](C)O)C(=O)N[C@@H](CC(=O)O)C(=O)NC(C)(C)C(=O)N[C@@H](CCCCN)C(=O)N[C@@H](CO)C(=O)N[C@@H](C)C(=O)N[C@@H](CCC(N)=O)C(=O)N[C@@H](CCC(=O)O)C(=O)N[C@@H](Cc1ccccc1)C(=O)N[C@H](C(=O)NC(C)(C)C(=O)N[C@@H](Cc1c[nH]c2ccccc12)C(=O)N[C@@H](CC(C)C)C(=O)N[C@@H](CCC(=O)O)C(=O)N[C@@H](CC(=O)O)C(=O)N[C@@H](CCC(=O)O)C(=O)N1CCC[C@H]1C(=O)N[C@@H](CO)C(=O)N[C@@H](CO)C(=O)NCC(=O)N[C@@H](C)C(=O)N1CCC[C@H]1C(=O)N1CCC[C@H]1C(=O)N1CCC[C@H]1C(=O)N[C@@H](CO)C(=O)O)C(C)C
B3: Compound A1 (peptide)
peptide: YSHGTFTSDYSKYLD[Aib]KYAQEFV[Aib]WLEDEPSSGAPPPS-OH
modifications: N-terminus assumed
SMILES: CC(C)C[C@H](NC(=O)[C@H](Cc1ccc(O)cc1)NC(=O)[C@H](CCCCN)NC(=O)[C@H](CO)NC(=O)[C@H](Cc1ccc(O)cc1)NC(=O)[C@H](CC(=O)O)NC(=O)[C@H](CO)NC(=O)[C@@H](NC(=O)[C@H](Cc1ccccc1)NC(=O)[C@@H](NC(=O)CNC(=O)[C@H](Cc1c[nH]cn1)NC(=O)[C@H](CO)NC(=O)[C@@H](N)Cc1ccc(O)cc1)[C@@H](C)O)[C@@H](C)O)C(=O)N[C@@H](CC(=O)O)C(=O)NC(C)(C)C(=O)N[C@@H](CCCCN)C(=O)N[C@@H](Cc1ccc(O)cc1)C(=O)N[C@@H](C)C(=O)N[C@@H](CCC(N)=O)C(=O)N[C@@H](CCC(=O)O)C(=O)N[C@@H](Cc1ccccc1)C(=O)N[C@H](C(=O)NC(C)(C)C(=O)N[C@@H](Cc1c[nH]c2ccccc12)C(=O)N[C@@H](CC(C)C)C(=O)N[C@@H](CCC(=O)O)C(=O)N[C@@H](CC(=O)O)C(=O)N[C@@H](CCC(=O)O)C(=O)N1CCC[C@H]1C(=O)N[C@@H](CO)C(=O)N[C@@H](CO)C(=O)NCC(=O)N[C@@H](C)C(=O)N1CCC[C@H]1C(=O)N1CCC[C@H]1C(=O)N1CCC[C@H]1C(=O)N[C@@H](CO)C(=O)O)C(C)C
B4: Compound A5 (peptide)
peptide: YSHGTFTSDYSKYLDSARAQEFVKWLEDEPSSGAPPPS-NH2
B5: Compound A78 (peptide)
peptide: YSHGTFTSDYSKYLD[Aib]KLAQEFV[Aib]WLEDEPSSGAPPPS-OH
modifications: N-terminus assumed
SMILES: CC(C)C[C@H](NC(=O)[C@H](CCCCN)NC(=O)C(C)(C)NC(=O)[C@H](CC(=O)O)NC(=O)[C@H](CC(C)C)NC(=O)[C@H](Cc1ccc(O)cc1)NC(=O)[C@H](CCCCN)NC(=O)[C@H](CO)NC(=O)[C@H](Cc1ccc(O)cc1)NC(=O)[C@H](CC(=O)O)NC(=O)[C@H](CO)NC(=O)[C@@H](NC(=O)[C@H](Cc1ccccc1)NC(=O)[C@@H](NC(=O)CNC(=O)[C@H](Cc1c[nH]cn1)NC(=O)[C@H](CO)NC(=O)[C@@H](N)Cc1ccc(O)cc1)[C@@H](C)O)[C@@H](C)O)C(=O)N[C@@H](C)C(=O)N[C@@H](CCC(N)=O)C(=O)N[C@@H](CCC(=O)O)C(=O)N[C@@H](Cc1ccccc1)C(=O)N[C@H](C(=O)NC(C)(C)C(=O)N[C@@H](Cc1c[nH]c2ccccc12)C(=O)N[C@@H](CC(C)C)C(=O)N[C@@H](CCC(=O)O)C(=O)N[C@@H](CC(=O)O)C(=O)N[C@@H](CCC(=O)O)C(=O)N1CCC[C@H]1C(=O)N[C@@H](CO)C(=O)N[C@@H](CO)C(=O)NCC(=O)N[C@@H](C)C(=O)N1CCC[C@H]1C(=O)N1CCC[C@H]1C(=O)N1CCC[C@H]1C(=O)N[C@@H](CO)C(=O)O)C(C)C
B6: Compound A3 (peptide)
peptide: YSQGTFTSDYSKYLDAARAQEFVKWLEDEPKSKSPPPS-NH2
B7: Compound A79 (peptide)
peptide: YSHGTFTSDYSKYLD[Aib]KEAQEFV[Aib]WLEDEPSSGAPPPS-OH
modifications: N-terminus assumed
SMILES: CC(C)C[C@H](NC(=O)[C@H](Cc1ccc(O)cc1)NC(=O)[C@H](CCCCN)NC(=O)[C@H](CO)NC(=O)[C@H](Cc1ccc(O)cc1)NC(=O)[C@H](CC(=O)O)NC(=O)[C@H](CO)NC(=O)[C@@H](NC(=O)[C@H](Cc1ccccc1)NC(=O)[C@@H](NC(=O)CNC(=O)[C@H](Cc1c[nH]cn1)NC(=O)[C@H](CO)NC(=O)[C@@H](N)Cc1ccc(O)cc1)[C@@H](C)O)[C@@H](C)O)C(=O)N[C@@H](CC(=O)O)C(=O)NC(C)(C)C(=O)N[C@@H](CCCCN)C(=O)N[C@@H](CCC(=O)O)C(=O)N[C@@H](C)C(=O)N[C@@H](CCC(N)=O)C(=O)N[C@@H](CCC(=O)O)C(=O)N[C@@H](Cc1ccccc1)C(=O)N[C@H](C(=O)NC(C)(C)C(=O)N[C@@H](Cc1c[nH]c2ccccc12)C(=O)N[C@@H](CC(C)C)C(=O)N[C@@H](CCC(=O)O)C(=O)N[C@@H](CC(=O)O)C(=O)N[C@@H](CCC(=O)O)C(=O)N1CCC[C@H]1C(=O)N[C@@H](CO)C(=O)N[C@@H](CO)C(=O)NCC(=O)N[C@@H](C)C(=O)N1CCC[C@H]1C(=O)N1CCC[C@H]1C(=O)N1CCC[C@H]1C(=O)N[C@@H](CO)C(=O)O)C(C)C

Each binder was assayed against human glucagon receptor (GCGR) (human, UniProt P47871 26-477) (assay: cell-based or functional assay).

Binder	hGCGR pEC50 (cAMP) [pEC50]
B1	11.8
B2	11.7
B3	12.3
B4	11.8
B5	10.8
B6	12.1
B7	10.2

These binders were tested against human GLP-1 receptor (GLP-1R) (human, UniProt P43220 24-463) (assay: cell-based or functional assay).
Chain of human GLP-1 receptor (GLP-1R) (P43220 24-463): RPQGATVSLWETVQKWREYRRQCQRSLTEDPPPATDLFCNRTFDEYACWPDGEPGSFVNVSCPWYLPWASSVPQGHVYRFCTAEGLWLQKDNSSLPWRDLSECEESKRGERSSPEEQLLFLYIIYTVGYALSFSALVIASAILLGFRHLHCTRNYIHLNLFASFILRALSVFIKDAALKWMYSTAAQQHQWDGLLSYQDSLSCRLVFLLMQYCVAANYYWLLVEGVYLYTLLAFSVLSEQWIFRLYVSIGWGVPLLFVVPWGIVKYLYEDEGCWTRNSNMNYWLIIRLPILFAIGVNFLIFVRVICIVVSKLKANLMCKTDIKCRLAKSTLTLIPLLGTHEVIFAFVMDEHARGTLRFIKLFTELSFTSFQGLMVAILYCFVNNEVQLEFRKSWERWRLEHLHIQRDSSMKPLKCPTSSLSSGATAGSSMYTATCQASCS

Binder	hGLP1 pEC50 (cAMP) [pEC50]
B1	< 5
B2	5.4
B3	5.2
B4	5.8
B5	< 9
B6	6.7
B7	< 9
